# ± gives the standard deviation of the averaged measurements.
# B1: library; a variant is named by its letters at N, in order (parent)
# chain: GCUGUCACCGAGAAACUGUGAAGUAUAUCUUAAACCUGGGCACUUAAAAGAUAUAUGGAGUUAGUAGUGCAACCUGCUCGGUCUGAUGAGUCCNNNNNNGGACGAAACAGC
# Assays:
# cyclic di-GMP [1] = variants of: B1; experiment: normalized RNA/DNA level without ligand (relative to sTRSVctl = 100) (log10 (% of sTRSVctl)); HEK293T; ligand: cyclic di-GMP (c-di-GMP-II aptamer); higher = less ribozyme self-cleavage, higher mRNA level; conditions: reporter: mCherry (pCS4076), ligand present: no
# In short: (§1)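 Only sequences with at least 100 DNA reads were analyzed, from HEK293T cells transfected with 4 µg per 6-well well of ribozyme switch library plasmids 72 h before RNA extraction with EDTA. Any ligand was added 1 h before transfection. RNA level was defined as RNA over DNA reads, normalized to a spiked-in non-cleaving sequence or to the top sequences, then scaled and log-transformed. The top set was 25 sequences, and the scaling was ×100 followed by log10.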
# cyclic di-GMP [2] = variants of: B1; experiment: normalized RNA/DNA level with ligand (relative to sTRSVctl = 100) (log10 (% of sTRSVctl)); HEK293T; ligand: cyclic di-GMP (c-di-GMP-II aptamer); ligand concentration (+) RNA-Seq: 1 mM; higher = less ribozyme self-cleavage, higher mRNA level; conditions: reporter: mCherry (pCS4076), ligand present: yes
# In short: as §1
Variant,normalized RNA/DNA level without ligand (log10) (cyclic di-GMP [1]),normalized RNA/DNA level with ligand (log10) (cyclic di-GMP [2])
GCUGUCACCGAGAAACUGUGAAGUAUAUCUUAAACCUGGGCACUUAAAAGAUAUAUGGAGUUAGUAGUGCAACCUGCUCGGUCUGAUGAGUCCCCAUUUGGACGAAACAGC [CCAUUU],1.569 ± 0.013,1.7 ± 0.12
GCUGUCACCGAGAAACUGUGAAGUAUAUCUUAAACCUGGGCACUUAAAAGAUAUAUGGAGUUAGUAGUGCAACCUGCUCGGUCUGAUGAGUCCGGCCUUGGACGAAACAGC [GGCCUU],1.791 ± 0.013,1.9 ± 0.059
GCUGUCACCGAGAAACUGUGAAGUAUAUCUUAAACCUGGGCACUUAAAAGAUAUAUGGAGUUAGUAGUGCAACCUGCUCGGUCUGAUGAGUCCAUCGAAGGACGAAACAGC [AUCGAA],1.45 ± 0.084,1.67 ± 0.09
GCUGUCACCGAGAAACUGUGAAGUAUAUCUUAAACCUGGGCACUUAAAAGAUAUAUGGAGUUAGUAGUGCAACCUGCUCGGUCUGAUGAGUCCUUGUUGGGACGAAACAGC [UUGUUG],1.67 ± 0.053,1.86 ± 0.13
GCUGUCACCGAGAAACUGUGAAGUAUAUCUUAAACCUGGGCACUUAAAAGAUAUAUGGAGUUAGUAGUGCAACCUGCUCGGUCUGAUGAGUCCAGUACAGGACGAAACAGC [AGUACA],1.51 ± 0.038,1.67 ± 0.059
GCUGUCACCGAGAAACUGUGAAGUAUAUCUUAAACCUGGGCACUUAAAAGAUAUAUGGAGUUAGUAGUGCAACCUGCUCGGUCUGAUGAGUCCACCCUUGGACGAAACAGC [ACCCUU],1.66 ± 0.046,1.78 ± 0.12
GCUGUCACCGAGAAACUGUGAAGUAUAUCUUAAACCUGGGCACUUAAAAGAUAUAUGGAGUUAGUAGUGCAACCUGCUCGGUCUGAUGAGUCCGACACAGGACGAAACAGC [GACACA],1.63 ± 0.018,1.77 ± 0.07
GCUGUCACCGAGAAACUGUGAAGUAUAUCUUAAACCUGGGCACUUAAAAGAUAUAUGGAGUUAGUAGUGCAACCUGCUCGGUCUGAUGAGUCCAAGUACGGACGAAACAGC [AAGUAC],1.657 ± 0.007,1.8 ± 0.14
GCUGUCACCGAGAAACUGUGAAGUAUAUCUUAAACCUGGGCACUUAAAAGAUAUAUGGAGUUAGUAGUGCAACCUGCUCGGUCUGAUGAGUCCUCCUGAGGACGAAACAGC [UCCUGA],1.69 ± 0.048,1.85 ± 0.1
GCUGUCACCGAGAAACUGUGAAGUAUAUCUUAAACCUGGGCACUUAAAAGAUAUAUGGAGUUAGUAGUGCAACCUGCUCGGUCUGAUGAGUCCUGAACAGGACGAAACAGC [UGAACA],1.75 ± 0.037,1.87 ± 0.074
GCUGUCACCGAGAAACUGUGAAGUAUAUCUUAAACCUGGGCACUUAAAAGAUAUAUGGAGUUAGUAGUGCAACCUGCUCGGUCUGAUGAGUCCCCUUGCGGACGAAACAGC [CCUUGC],1.72 ± 0.059,1.83 ± 0.085
GCUGUCACCGAGAAACUGUGAAGUAUAUCUUAAACCUGGGCACUUAAAAGAUAUAUGGAGUUAGUAGUGCAACCUGCUCGGUCUGAUGAGUCCAGCGGGGGACGAAACAGC [AGCGGG],1.76 ± 0.043,1.9 ± 0.083
GCUGUCACCGAGAAACUGUGAAGUAUAUCUUAAACCUGGGCACUUAAAAGAUAUAUGGAGUUAGUAGUGCAACCUGCUCGGUCUGAUGAGUCCUAGCGAGGACGAAACAGC [UAGCGA],1.61 ± 0.053,1.76 ± 0.095
GCUGUCACCGAGAAACUGUGAAGUAUAUCUUAAACCUGGGCACUUAAAAGAUAUAUGGAGUUAGUAGUGCAACCUGCUCGGUCUGAUGAGUCCGCCCUCGGACGAAACAGC [GCCCUC],1.744 ± 0.0049,1.87 ± 0.12
GCUGUCACCGAGAAACUGUGAAGUAUAUCUUAAACCUGGGCACUUAAAAGAUAUAUGGAGUUAGUAGUGCAACCUGCUCGGUCUGAUGAGUCCUAAGAAGGACGAAACAGC [UAAGAA],1.597 ± 0.008,1.74 ± 0.13
GCUGUCACCGAGAAACUGUGAAGUAUAUCUUAAACCUGGGCACUUAAAAGAUAUAUGGAGUUAGUAGUGCAACCUGCUCGGUCUGAUGAGUCCCAAGCUGGACGAAACAGC [CAAGCU],1.67 ± 0.021,1.83 ± 0.071
GCUGUCACCGAGAAACUGUGAAGUAUAUCUUAAACCUGGGCACUUAAAAGAUAUAUGGAGUUAGUAGUGCAACCUGCUCGGUCUGAUGAGUCCGUCGCAGGACGAAACAGC [GUCGCA],1.77 ± 0.021,1.86 ± 0.09
GCUGUCACCGAGAAACUGUGAAGUAUAUCUUAAACCUGGGCACUUAAAAGAUAUAUGGAGUUAGUAGUGCAACCUGCUCGGUCUGAUGAGUCCAGCUGUGGACGAAACAGC [AGCUGU],1.667 ± 0.01,1.8 ± 0.073
GCUGUCACCGAGAAACUGUGAAGUAUAUCUUAAACCUGGGCACUUAAAAGAUAUAUGGAGUUAGUAGUGCAACCUGCUCGGUCUGAUGAGUCCUGUCUCGGACGAAACAGC [UGUCUC],1.79 ± 0.0075,1.88 ± 0.087
GCUGUCACCGAGAAACUGUGAAGUAUAUCUUAAACCUGGGCACUUAAAAGAUAUAUGGAGUUAGUAGUGCAACCUGCUCGGUCUGAUGAGUCCUGUCGGGGACGAAACAGC [UGUCGG],1.74 ± 0.027,1.86 ± 0.077
GCUGUCACCGAGAAACUGUGAAGUAUAUCUUAAACCUGGGCACUUAAAAGAUAUAUGGAGUUAGUAGUGCAACCUGCUCGGUCUGAUGAGUCCACACUGGGACGAAACAGC [ACACUG],1.48 ± 0.04,1.68 ± 0.077
GCUGUCACCGAGAAACUGUGAAGUAUAUCUUAAACCUGGGCACUUAAAAGAUAUAUGGAGUUAGUAGUGCAACCUGCUCGGUCUGAUGAGUCCCGCAACGGACGAAACAGC [CGCAAC],1.62 ± 0.05,1.78 ± 0.12
GCUGUCACCGAGAAACUGUGAAGUAUAUCUUAAACCUGGGCACUUAAAAGAUAUAUGGAGUUAGUAGUGCAACCUGCUCGGUCUGAUGAGUCCGCCCAAGGACGAAACAGC [GCCCAA],1.616 ± 0.011,1.77 ± 0.17
GCUGUCACCGAGAAACUGUGAAGUAUAUCUUAAACCUGGGCACUUAAAAGAUAUAUGGAGUUAGUAGUGCAACCUGCUCGGUCUGAUGAGUCCUGAAUAGGACGAAACAGC [UGAAUA],1.677 ± 0.0075,1.82 ± 0.096
GCUGUCACCGAGAAACUGUGAAGUAUAUCUUAAACCUGGGCACUUAAAAGAUAUAUGGAGUUAGUAGUGCAACCUGCUCGGUCUGAUGAGUCCGAUGGCGGACGAAACAGC [GAUGGC],1.68 ± 0.051,1.8 ± 0.13
GCUGUCACCGAGAAACUGUGAAGUAUAUCUUAAACCUGGGCACUUAAAAGAUAUAUGGAGUUAGUAGUGCAACCUGCUCGGUCUGAUGAGUCCGAGCCCGGACGAAACAGC [GAGCCC],1.81 ± 0.1,1.92 ± 0.16

# From the supplement of paper PMC6757056
